Reference: patent publication US20180216136

System: ZFN 30035 (AAVS1) (synthetic)
Test: cell_activity
Details: pair 30035:30054 in CD34+ cells, higher AAV6 donor dose, ZFN mRNA 40 ug/ml

## CCCCACTGTGGGGTGGAGGGGACAGATA (double strand) [AAVS1 30035 target]
  activity (% targeted integration): > 50
